{"source": "patent US20230203134A1", "about": "(published 2023)", "key": {"[1]": {"biological_target": "T1, SARS-CoV-2 S trimer (soluble spike ectodomain trimer) (SARS-CoV-2, UniProt P0DTC2 14-1213)", "test": "SPR"}, "[2]": {"biological_target": "T1, SARS-CoV-2 S trimer (soluble spike …)", "test": "ELISA"}, "[3]": {"biological_target": "T2, SARS-CoV-2 receptor binding domain (RBD) (SARS-CoV-2, UniProt P0DTC2 319-591)", "test": "ELISA"}, "[4]": {"biological_target": "T1, SARS-CoV-2 S trimer (soluble spike …)", "test": "SPR", "remark": "listed apart in the source"}, "[5]": {"biological_target": "T1, SARS-CoV-2 S trimer (soluble spike …)", "test": "SPR", "remark": "listed apart in the source"}, "[6]": {"biological_target": "T2, SARS-CoV-2 receptor binding domain (RBD)", "test": "SPR"}}, "note": "Where two headings read alike, the source gives them in different places."}
{"binder": "monoclonal antibody 2-51 (antibody, V domains shown) VH: QVQLVQSGAEVKKPGASVKVSCKVSGYTLIELSMHWVRQAPGKGLEWMGGFDPEDVETIYAQQFQGRVTMTEDTSTDTAYMELSSLRSEDTAVYYCATGWAYKSTWYFGYWGQGTLVTVSS VL: QSALTQPPSASGSPGQSVTISCTGTSSDVGGYNYVSWYQQHPGKAPKLMIYEVSKRPSGVPDRFSGSKSGNTASLTVSGLQAEDEADYYCSSYAGSRMGFGGGTKLTVL", "values": [{"measurement": "Kd", "setting": "[1]", "value": 77.1, "unit": "nM"}, {"measurement": "EC50", "setting": "[2]", "value": 0.017, "unit": "µg/mL"}]}
{"binder": "monoclonal antibody 2-15 (antibody, V domains shown) VH: QVQLVQSGAEVKKPGASVRVSCKASGYTFTGYYMHWVRQAPGQGLEWMGWINPISDGTNYAQKFQGWVTMTRDTSISTVYMELSRLRSDDTAVYYCARGGSRCSGGNCYGWAYDAFDIWGQGTMITVSS VL: QSALTQPASVSGSPGQSITISCTGTSSDVGGYNFVSWYQQHPGKAPKLMIYDVSKRPSGVSNRFSGSKSGNTASLTISGLQAEDEADCYCSSYTSSSTFVFGTGTKVTVL", "values": [{"measurement": "EC50", "setting": "[2]", "value": 0.006, "unit": "µg/mL"}, {"measurement": "EC50", "setting": "[3]", "value": 0.008, "unit": "µg/mL"}, {"measurement": "Kd", "setting": "[4]", "value": 5.7, "unit": "nM"}]}
{"binder": "monoclonal antibody 2-38 (antibody, V domains shown) VH: EVQLVESGGGLVKPGGSLRLSCAASGFTFSSYSMNWVRQAPGKGLEWVSSISSSSSYIYYADSVKGRFTISRDNAKNSLYLQMNSLRAEDTAVYYCTRAGWELRLDAFDIWGQGTMVTVSS VL: SSELTQDPAVSVALGQTVRITCQGDSLRSSYASWYQQKPGQAPILVIYDKNNRPSGIPDRFSGSSSGNTASLTITGAQAEDEADYYCNSRDSSGILFGGGTKLTVL", "values": [{"measurement": "EC50", "setting": "[2]", "value": 0.305, "unit": "µg/mL"}, {"measurement": "EC50", "setting": "[3]", "value": 0.289, "unit": "µg/mL"}, {"measurement": "Kd", "setting": "[4]", "value": 51.4, "unit": "nM"}]}
{"binder": "monoclonal antibody 2-4 (antibody, V domains shown) VH: QVQLVQSGAEVKKPGASVKVSCKASGYTFTGYYMHWVRQAPGQGLEWMGWINPNSGGTNYTQMFQGRVTMTRDTSISTAYMEVSRLRSDDTAVYYCARDRSWAVVYYYMDVWGKGTTVTVSS VL: QSALTQPPSASGSPGQSVTISCTGTSSDVGGYNYVSWYQQHPGKAPKLMIYEVSKRPSGVPDRFSGSKSGNTASLTVSGLQAEDEADYYCSSYAGSNNLVFGGGTKLTVL", "values": [{"measurement": "Kd", "setting": "[5]", "value": 41.2, "unit": "nM"}, {"measurement": "EC50", "setting": "[2]", "value": 0.018, "unit": "µg/mL"}, {"measurement": "EC50", "setting": "[3]", "value": 0.021, "unit": "µg/mL"}, {"measurement": "Kd", "setting": "[4]", "value": 8.7, "unit": "nM"}, {"measurement": "Kd", "setting": "[6]", "value": 34.2, "unit": "nM"}]}
